From publication PMC4010534 come the findings set out here.

The target of the test is Cdc42 biosensor with the effector-binding mutations T35S and Y40C in Cdc42 (UniProt Q13153).

Take “guanine nucleotide dissociation inhibitor (from UniProt P52565 1-204) (natural protein)”: the difference in FRET/mCer ratio of the biosensor by fluorometry in HEK293 cells, GDI-bound (with excess GDI) against GDI-free worked out at 17%.
